Measurements: patent US20230174623A1 (MIT, published 2023)

B1: His-tagged biotinylated lumican (other)
chain: QYYDYDIPLFMYGQISPNCAPECNCPHSYPTAMYCDDLKLKSVPMVPPGIKYLYLRNNQIDHIDEKAFENVTDLQWLILDHNLLENSKIKGKVFSKLKQLKKLHINYNNLTESVGPLPKSLQDLQLTNNKISKLGSFDGLVNLTFIYLQHNQLKEDAVSASLKGLKSLEYLDLSFNQMSKLPAGLPTSLLTLYLDNNKISNIPDEYFKRFTGLQYLRLSHNELADSGVPGNSFNISSLLELDLSYNKLKSIPTVNENLENYYLEVNELEKFDVKSFCKILGPLSYSKIKHLRLDGNPLTQSSLPPDMYECLRVANEITVNGGGSHHHHHH
modifications: biotinylated (site not stated)
notes: also called Lwt-His-b; Lwt-HIS-b
B2: lumican (purified His-tagged murine lumican, not biotinylated) (other)
chain: B1 chain
notes: also called Lwt
B3: extracellular domain of His-tagged murine LAIR-1 (receptor)
chain: QEGSLPDITIFPNSSLMISQGTFVTVVCSYSDKHDLYNMVRLEKDGSTFMEKSTEPYKTEDEFEIGPVNETITGHYSCIYSKGITWSERSKTLELKVIKENVIQTPAPGPTSDTSWLKTYSIYHHHHHH
notes: The entry includes the C-terminal His tag; Expressed in HEK293 cells; also called mLAIR1-His; mLAIR1
B4: ColG s3a/s3b-Gluc (bacterial collagenase ColG domains s3a/s3b fused to Gaussia luciferase, His-tagged) (other)
chain: PITKEMEPNDDIKEANGPIVEGVTVKGDLNGSDDADTFYFDVKEDGDVTIELPYSGSSNFTWLVYKEGDDQNHIASGIDKNNSKVGTFKSTKGRHYVFIYKHDSASNISYSLNIKGLGNEKLKEKENNDSSDKATVIPNFNTTMQGSLLGDDSRDYYSFEVKEEGEVNIELDKKDEFGVTWTLHPESNINDRITYGQVDGNKVSNKVKLRPGKYYLLVYKYSGSGNYELRVNGGGSGGGSGGGSKPTENNEDFNIVAVASNFATTDLDADRGKLPGKKLPLEVLKEMEANARKAGCTRGCLICLSHIKCTPKMKKFIPGRCHTYEGDKESAQGGIGEAIVDIPEIPGFKDLEPMEQFIAQVDLCVDCTTGCLKGLANVQCSDLLKKWLPQRCATFASKIQGQVDKIKGAGGDGGGSHHHHHH
notes: Expressed in HEK293 cells, 46.1 kDa; also called ColG-Gluc; ColG s3s/s3b-Gluc
B5: Lumican-Gluc (His-tagged murine lumican fused to Gaussia luciferase) (other)
chain: QYYDYDIPLFMYGQISPNCAPECNCPHSYPTAMYCDDLKLKSVPMVPPGIKYLYLRNNQIDHIDEKAFENVTDLQWLILDHNLLENSKIKGKVFSKLKQLKKLHINYNNLTESVGPLPKSLQDLQLTNNKISKLGSFDGLVNLTFIYLQHNQLKEDAVSASLKGLKSLEYLDLSFNQMSKLPAGLPTSLLTLYLDNNKISNIPDEYFKRFTGLQYLRLSHNELADSGVPGNSFNISSLLELDLSYNKLKSIPTVNENLENYYLEVNELEKFDVKSFCKILGPLSYSKIKHLRLDGNPLTQSSLPPDMYECLRVANEITVNGGGSGGGSGGGSKPTENNEDFNIVAVASNFATTDLDADRGKLPGKKLPLEVLKEMEANARKAGCTRGCLICLSHIKCTPKMKKFIPGRCHTYEGDKESAQGGIGEAIVDIPEIPGFKDLEPMEQFIAQVDLCVDCTTGCLKGLANVQCSDLLKKWLPQRCATFASKIQGQVDKIKGAGGDGGGSHHHHHH
notes: Expressed in HEK293 cells, 56.6 kDa; also called Lum GLuc
B6: LAIR30.2.K1.B displayed on yeast (Aga2 fusion with c-myc tag) (receptor)
chain: QEGSLPDITIFPNSSLVISQGTFVTVVCSYSDKHDLYNMVRLEKDGSTFMEKSTAPYKTEDEFEIGPVNETITGHYSCIYSKGITWSERSKTLELKVIKENVIQTPAPGPTSDTLWLKTYSIY
notes: not shown: Aga2 protein of yeast, display anchor of the pCTCON2 vector; c-myc tag after the LAIR gene

Key:
[1] = target: T1, collagen type I (collagen I coated 96 well-plates, Gibco); assay: ELISA on collagen I, anti-His-HRP
T1 construct: also called collagen type 1
T1 sequence (P02454 152-1207, chain 1 of 2): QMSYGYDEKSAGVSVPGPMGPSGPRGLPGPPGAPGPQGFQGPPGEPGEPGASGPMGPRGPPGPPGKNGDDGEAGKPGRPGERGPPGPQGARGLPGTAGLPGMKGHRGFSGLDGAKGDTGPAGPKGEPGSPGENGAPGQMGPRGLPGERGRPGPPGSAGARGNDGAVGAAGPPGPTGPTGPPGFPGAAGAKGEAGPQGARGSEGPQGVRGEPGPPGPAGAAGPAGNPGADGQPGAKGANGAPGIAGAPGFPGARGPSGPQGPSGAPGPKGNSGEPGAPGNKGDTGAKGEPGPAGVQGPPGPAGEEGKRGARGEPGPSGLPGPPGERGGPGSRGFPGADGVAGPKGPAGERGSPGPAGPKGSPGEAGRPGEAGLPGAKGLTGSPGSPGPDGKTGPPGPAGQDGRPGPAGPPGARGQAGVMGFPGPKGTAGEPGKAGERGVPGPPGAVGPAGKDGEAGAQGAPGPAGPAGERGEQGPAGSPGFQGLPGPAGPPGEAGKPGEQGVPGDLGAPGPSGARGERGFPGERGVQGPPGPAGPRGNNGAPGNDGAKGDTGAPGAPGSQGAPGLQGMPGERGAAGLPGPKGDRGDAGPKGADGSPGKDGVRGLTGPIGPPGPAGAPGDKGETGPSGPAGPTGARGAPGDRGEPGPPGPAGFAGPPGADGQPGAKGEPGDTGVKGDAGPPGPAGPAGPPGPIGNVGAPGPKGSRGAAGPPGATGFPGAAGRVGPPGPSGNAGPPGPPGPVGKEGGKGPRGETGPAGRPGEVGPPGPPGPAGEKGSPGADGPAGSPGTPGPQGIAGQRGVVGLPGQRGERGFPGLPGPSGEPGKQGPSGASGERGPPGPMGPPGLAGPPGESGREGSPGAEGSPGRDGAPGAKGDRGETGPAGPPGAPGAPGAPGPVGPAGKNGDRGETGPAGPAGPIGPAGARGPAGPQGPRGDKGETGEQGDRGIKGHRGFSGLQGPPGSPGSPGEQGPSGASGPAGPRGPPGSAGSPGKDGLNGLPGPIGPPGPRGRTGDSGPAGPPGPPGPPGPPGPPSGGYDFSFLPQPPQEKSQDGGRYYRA
T1 sequence (P02466 86-1125, chain 2 of 2, further chain): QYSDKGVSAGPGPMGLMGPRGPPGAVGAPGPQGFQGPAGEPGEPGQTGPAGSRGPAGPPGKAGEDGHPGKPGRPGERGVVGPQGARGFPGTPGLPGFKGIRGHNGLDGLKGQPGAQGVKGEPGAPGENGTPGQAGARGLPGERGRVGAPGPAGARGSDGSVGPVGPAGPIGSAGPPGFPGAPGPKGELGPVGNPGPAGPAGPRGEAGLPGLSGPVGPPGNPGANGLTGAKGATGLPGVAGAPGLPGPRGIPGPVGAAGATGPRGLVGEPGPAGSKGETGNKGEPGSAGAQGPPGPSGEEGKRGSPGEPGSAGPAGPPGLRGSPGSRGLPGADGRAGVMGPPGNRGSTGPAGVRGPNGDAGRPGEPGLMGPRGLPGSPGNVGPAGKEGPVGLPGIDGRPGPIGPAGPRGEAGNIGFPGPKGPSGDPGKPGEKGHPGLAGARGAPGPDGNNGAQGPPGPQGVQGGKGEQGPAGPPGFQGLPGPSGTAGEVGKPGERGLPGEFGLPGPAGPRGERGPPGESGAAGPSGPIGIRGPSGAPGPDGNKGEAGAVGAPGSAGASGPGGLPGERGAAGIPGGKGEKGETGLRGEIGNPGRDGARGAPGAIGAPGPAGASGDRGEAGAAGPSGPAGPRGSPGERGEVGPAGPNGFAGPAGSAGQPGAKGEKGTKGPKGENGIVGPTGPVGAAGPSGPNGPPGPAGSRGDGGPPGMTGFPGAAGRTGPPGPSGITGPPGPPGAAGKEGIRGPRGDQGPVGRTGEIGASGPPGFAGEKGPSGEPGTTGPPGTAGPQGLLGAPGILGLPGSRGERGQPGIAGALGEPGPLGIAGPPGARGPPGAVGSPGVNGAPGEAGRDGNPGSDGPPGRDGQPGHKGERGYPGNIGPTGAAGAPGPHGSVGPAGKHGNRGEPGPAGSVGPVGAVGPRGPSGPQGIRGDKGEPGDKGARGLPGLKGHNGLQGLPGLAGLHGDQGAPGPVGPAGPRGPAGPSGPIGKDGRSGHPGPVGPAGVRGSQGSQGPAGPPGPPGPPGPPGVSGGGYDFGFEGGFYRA

[2] = target: T2, bovine serum albumin (plate blocked with BSA) (bovine, UniProt P02769 25-607); assay: ELISA on a plate blocked with bovine serum albumin, anti-His-HRP detection
T2 construct: Specificity control surface
T2 sequence (P02769 25-607 limits assumed): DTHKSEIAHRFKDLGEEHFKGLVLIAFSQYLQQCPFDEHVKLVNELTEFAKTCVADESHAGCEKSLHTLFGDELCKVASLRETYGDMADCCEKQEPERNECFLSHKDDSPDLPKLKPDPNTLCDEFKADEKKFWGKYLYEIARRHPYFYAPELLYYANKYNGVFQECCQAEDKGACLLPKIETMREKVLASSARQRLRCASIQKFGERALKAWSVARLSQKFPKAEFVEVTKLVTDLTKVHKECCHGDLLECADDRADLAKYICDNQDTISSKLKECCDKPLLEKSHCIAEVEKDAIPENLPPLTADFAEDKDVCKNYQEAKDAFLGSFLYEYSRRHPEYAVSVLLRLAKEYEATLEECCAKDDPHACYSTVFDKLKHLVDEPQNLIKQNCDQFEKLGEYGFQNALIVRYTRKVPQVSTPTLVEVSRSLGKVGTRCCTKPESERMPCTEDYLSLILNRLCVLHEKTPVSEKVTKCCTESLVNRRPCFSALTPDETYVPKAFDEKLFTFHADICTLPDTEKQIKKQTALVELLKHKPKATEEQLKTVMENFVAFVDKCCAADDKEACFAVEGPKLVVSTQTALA

[3] = target: T1, collagen type I (collagen I coated 96 …); assay: ELISA on collagen I after thawing from frozen, with excipients; data not shown
[4] = target: T1, collagen type I (collagen I coated 96 …); assay: competition ELISA on collagen I; 50 nM biotinylated lumican detected with streptavidin-HRP, rmLAIR1 varied
[5] = target: T1, collagen type I (collagen I coated 96 …); assay: ELISA, collagen I coated plate, anti-6xHis-HRP detection
[6] = target: collagen type IV (collagen IV coated 96 well-plates, Corning); assay: ELISA on collagen IV coated plate, anti-6xHis-HRP
[7] = target: collagen type IV (collagen IV coated 96 well-plates, Corning); assay: ELISA, collagen IV coated plate, anti-6xHis-HRP detection
[8] = target: T1, collagen type I (collagen I coated 96 …); assay: ELISA on collagen I coated plate, anti-6xHis-HRP
[9] = target: T3, CRP-XL-biotin (crosslinked collagen related peptide, biotinylated) (O represents hydroxyproline (all O positions); C-terminal amide (NH2); chains crosslinked to lock the helical structure; biotinylated (site not stated)); assay: kinetic dissociation at 37 C on yeast, MFI of bound CRP-XL-biotin during competition with excess CRP-XL, one-phase exponential decay fit
T3 construct: also called CPP-XL-biotin; soluble collagen peptide mimic
T3 sequence (peptide, as listed by the source limits assumed): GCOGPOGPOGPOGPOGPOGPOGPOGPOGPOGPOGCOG

Row | Binder | EC50 (read off the curve) [1] | binding result [2] | Kd [5] | other results
1 | B1 | ~20 nM | no binding |  | 
2 | B2 |  |  |  | fold reduction of binding affinity if lumican was not warmed to 37° C. prior to measurement [3]: ~50 fold
3 | B3 | ~20 nM | no binding |  | IC50 (read off the curve) [4]: ~300 nM
4 | B4 |  |  | 139 nM | 
5 | B5 |  |  | 130 nM | EC50 (read off the curve) [6]: ~60 nM; Kd [7]: 600 nM; EC50 (read off the curve) [8]: ~60 nM
6 | B6 |  |  |  | koff [9]: 4.17e-06 s⁻¹
